The nature of series [1]: PET hydrolysis, aromatic products released after 48 h (umol product/mg enzyme); higher = more PET depolymerization activity. The method in brief: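 The measure of PET hydrolysis activity is aromatic product released into the supernatant, given per mg enzyme. Nickel-purified, SUMO-cleaved enzyme without tag was added at 5 μg (50 μL) to 3.5 mg amorphous PET film or crystalline PET powder in 450 μL of citrate, phosphate or glycine buffer spanning pH 4.5 to 8.5. After 48 h at 40 or 60 °C in sealed plates without shaking, absorbance at 260 and 280 nm was taken against buffer blanks.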

Series [2] in a line: purified protein yield per well (BCA); higher = higher soluble expression. The method in brief: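 Expression was done in E. coli C41(DE3), using 2 mL autoinduction cultures with 100 µg/mL kanamycin incubated at 37 °C for 2 h and at 18 °C for 40 h. Protein was purified on Ni-charged magnetic beads and released by SUMO protease cleavage. Yield of purified protein per well was measured with the Pierce Rapid Gold BCA kit; values below 25 ug (0.1 mg/mL) are below detection.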

Series [3] can be described thus: melting temperature (DSF); higher = more thermostable. The method in brief:
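Candidate enzymes were expressed in E. coli C41(DE3), purified on nickel beads and released by SUMO protease cleavage. For differential scanning fluorimetry, 45 μL enzyme (0 to 0.3 mg/mL) was mixed with 5 μL 5X Sypro Orange in sealed PCR plates on a Bio-Rad CFX96 instrument. Fluorescence was read from 25 °C in steps of 0.3 °C per cycle (ramp 0.3 °C/s) for 250 cycles. The read-out is melting temperature.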

[4] abbreviates: substrate: aFilm, 40 °C, pH 4.5.
[5] abbreviates: substrate: aFilm, 40 °C, pH 5.5.
[6] abbreviates: substrate: aFilm, 40 °C, pH 6.5.
Setting [7] is: substrate: aFilm, 40 °C, pH 7.5.
Setting [8] is: substrate: aFilm, 60 °C, pH 4.5.
Setting [9] is: substrate: aFilm, 60 °C, pH 5.5.
[10] abbreviates: substrate: aFilm, 60 °C, pH 6.5.
Setting [11] is: substrate: aFilm, 60 °C, pH 7.5.
The mark [12] stands for this setting: substrate: cryPow, 40 °C, pH 4.5.
Where [13] appears, read: substrate: cryPow, 40 °C, pH 5.5.
The mark [14] stands for this setting: substrate: cryPow, 40 °C, pH 6.5.
Setting [15] is: substrate: cryPow, 40 °C, pH 7.5.
[16] abbreviates: substrate: cryPow, 60 °C, pH 4.5.
[17] abbreviates: substrate: cryPow, 60 °C, pH 5.5.
The mark [18] stands for this setting: substrate: cryPow, 60 °C, pH 6.5.
Where [19] appears, read: substrate: cryPow, 60 °C, pH 7.5.

± gives the standard deviation of the averaged measurements. A value given as a limit tells only on which side of the number the result lay.

In the case of “RPASAQDNPYERGPAPTVSSVAAQRGTFATAELTVPPGNGFNGGKIYYPTDTSLGTWGAVAAVPGYTAKWAAEGAWMGPWLASFGFVVIGIDTNSPNDYDTARGTQLLAALDYLTQKSAVRDRVDPNRLGVIGHSMGGGGAISAAVRRPSLKAALPLAPFSPSQNLSTLRVPTVIMGARDDGTVTPSYLDGLYGGMPAGTQSAFIELSSGGHGFPTWGNSNVTRRMIPWLKIFLDNDTRYTQFLCPSLADTSGVSRSKLKCPYVPPGGTTPPPPSGGPIVGAASGRCLEVPNSSQTNGTQVQLWDCLDRAGQKWTRTAAGELRVYGTKCLDAEASGTSPGTRVVIWDCHGGQNQQWNVNSNGTITSARSGLCLDAYNAGTGNGTQGVLWNCNGGANQRWALG [TEP024]”, the PET hydrolysis in series [1] (setting [4]), in series [1] (setting [5]), in series [1] (setting [6]), in series [1] (setting [7]), in series [1] (setting [8]) and in series [1] (setting [9]) was less than 3 throughout. For the same sequence, the PET hydrolysis was less than 3 in series [1] (setting [10]); less than 3 in series [1] (setting [11]); less than 3 in series [1] (setting [12]); 4.5 ± 0.71 in series [1] (setting [13]); 11.5 ± 2.1 in series [1] (setting [14]); 14.5 ± 0.71 in series [1] (setting [15]). The PET hydrolysis in series [1] (setting [16]), in series [1] (setting [17]), in series [1] (setting [18]) and in series [1] (setting [19]) was less than 3 throughout. Besides, the “purified protein yield per well” value in series [2] is 368 µg. Besides, the melting temperature in series [3] worked out at 61 C.
As to “ADNPYERGPNPTESLIEAARGPFATSQTTVSSLSVTGFGGGVIYYPTDTSQGTFGGIAISPGYTAAWSSLDWLGPRLASHGFVVIGIETNTRLDQPASRGDQLLAALDYLTQRSSVRSRVDATRLAVAGHSMGGGGSLEAAKDRTSLKAAIPLAPWNTDKTWPEVRTPTLIIGGESDTVAPVSSHSIPFYTSLTSAREKAYLELDNASHFFPQTSNTTMAKYMISWMKRYIDNDTRYEQFLCPGPSTGLLSGISDWRQTCPGS [TEP073]”, the PET hydrolysis in series [1] (setting [12]), in series [1] (setting [13]), in series [1] (setting [14]), in series [1] (setting [15]), in series [1] (setting [16]) and in series [1] (setting [17]) was less than 3 in each case. In addition, the PET hydrolysis in series [1] (setting [18]) and in series [1] (setting [19]) was less than 3 throughout. Also, the “purified protein yield per well” value in series [2] is 81.6 µg. This sequence gave a melting temperature in series [3] of 46.9 C.
For the sequence “AANPYQRGPAPTAASVAAVTGPFATASVSVPRGNGFGGGVIYYPTDTSQGTFGGLAISPGLNGTWPGIAWLGSRLASQGFIVFGIETNNLNDSPTSRGTQLLAALDYLAQRSSVRSRLDPGRLAVAGHSMGGGGALDAALRRPSLKAAIGNAPYLPSNTLAGNRVPTLIYAMQNDTLVPPSRLTSLYNTIPATTERAYLEITGAGHNYIGQPSTTLARTMIPWLKIFIDNDTRFSQFLCPLADQSGIRQYRSSCPLVPATTRALTAAAG [DP043]”, the PET hydrolysis is 12 in series [1] (setting [13]); 39 in series [1] (setting [14]); 96 in series [1] (setting [15]); 115 in series [1] (substrate: cryPow, 40 °C, pH 8.5); 7 in series [1] (setting [17]); 62 in series [1] (setting [18]). Also, the PET hydrolysis in series [1] (setting [19]) was determined as 98; in series [1] (substrate: cryPow, 60 °C, pH 8.5), 107. In addition, the “purified protein yield per well” value in series [2] came out at 92 µg. Moreover, the melting temperature in series [3] is 67.3 C.
In the case of “DEIGQAPTSSNITGNGSFSVATYNISSLVSGFGGGVAYYPTTSGRYPVIAVSPGFTARWSSISWIGPRLASWGFVVVGIETNSIYDQPGSRGSQLLAALNWAVNSAPSSVRDRVDGSRRGVAGHSMGGGGTLEALAADTTGLVKAGVPIAPWNTDTTWGGLNEAVQIVGGESDTIAPVSSHSIPFYSTLGGPKSYVELNGASHFFPQTSNSTLSRALVSWFKRYLNNDARFTPFTCGYSGLSISDFRSNNC [ESM144]”, the PET hydrolysis in series [1] (setting [12]) is less than 3; in series [1] (setting [13]), less than 3; in series [1] (setting [14]), less than 3; in series [1] (setting [15]), 6; in series [1] (setting [16]), less than 3; in series [1] (setting [17]), less than 3. Moreover, the PET hydrolysis in series [1] (setting [18]) and in series [1] (setting [19]) was less than 3 each time. Further, in series [2], the “purified protein yield per well” value was found to be 89.1 µg. In series [3], this sequence yielded a melting temperature of 50.2 C.
Turning to “APPARVAALATTAYQRGPAPTLSGVRAALGPFSYSTASVSAAATGYTFGGGTVYYPDDTSQGTFGGIAVTPGYTGTEGSIAWLGPRLASQGFVVITIATKSLYDQPTARGQQLLAALDYLKTYSPAAVRQRLDPQRLAVSGHSMGGGGALYAVWSRPSLKAAVPLAPYHTIKNWSAITVPTLIEAGTADTVTPVGTFAEPIYQSLTGASERAYAEVAGANHLTFTAENPLIGGLEVAWMKRFVDDDARYDQFLCPAPTDPGLTEYRDSCPTS [TEP101]”, the PET hydrolysis in series [1] (setting [4]), in series [1] (setting [5]), in series [1] (setting [6]), in series [1] (setting [7]), in series [1] (setting [8]) and in series [1] (setting [9]) was less than 3 throughout. Moreover, the PET hydrolysis is less than 3 in series [1] (setting [10]); less than 3 in series [1] (setting [11]); less than 3 in series [1] (setting [12]); 9 ± 1.4 in series [1] (setting [13]); 18.5 ± 0.71 in series [1] (setting [14]); 24 ± 2.8 in series [1] (setting [15]). For the same sequence, the PET hydrolysis is less than 3 in series [1] (setting [16]), 3 in series [1] (setting [17]), 7.5 ± 0.71 in series [1] (setting [18]) and 7.5 ± 0.71 in series [1] (setting [19]). The “purified protein yield per well” value in series [2] is 377 µg. Besides, in series [3], the melting temperature was determined as 56.5 C.
